Columns and labels:
Assay in all cases: purified protein
Format in all cases: biochemical, Rhodopseudomonas palustris
purified protein [1] = substrate: O=C1CCCCO1; details: 2.5 mM bicine pH 8.3, 150 mM NaCl, 1 mM CaCl2, DMSO, error is 95% CI
purified protein [2] = substrate: O=C1CCc2ccccc2O1; details: 50 mM Tris pH 8, 150 mM NaCl, 1 mM CaCl2, DMSO, error is 95% CI
purified protein [3] = substrate: CCCCCCC1CCC(=O)O1; details: 2.5 mM bicine pH 8.3, 150 mM NaCl, 1 mM CaCl2, DMSO, error is 95% CI

B1: Rpa3624 (Rhodopseudomonas palustris CGA009) (protein)
chain: MSNVRVLATDLAFPEGPVVMPDGSVVLVEIRAQQLTRVWPDGRKEVVAKVPGGPNGAALGPDGKMYICNNGGFGWFPSRGTMMPGAPAPHEYIGGSIQRVDLQSGEVETLFDKCGEHPLKGPNDLVFDKHGGLWFTDLGKRRARDMDVGAAYYIKPGMTEITEQVFGTLPLNGIGLSPDEATMYAAETPTGRLWAFDLSGPGEVKPRDVIYRGEKGKPICGLGGYQMFDSLAVEASGNVCVATLVSGCISVIAPDGTLVEQVPTGDRVTTNIAFGGPDLKTAYITLSGKGELIAMDWSRPGLPLNFLNK
- Km (purified protein [1]): 74.0 (40.7–133) mM
- kcat (purified protein [1]): 754 s⁻¹
- kcat/Km (purified protein [1]): 10200 M⁻¹ s⁻¹
- Km (purified protein [2]): 1.85 (0.976–3.77) mM
- kcat (purified protein [2]): 308 s⁻¹
- kcat/Km (purified protein [2]): 166000 M⁻¹ s⁻¹
- Km (purified protein [3]): 2.36 (1.15–4.82) mM
- kcat (purified protein [3]): 135 s⁻¹
- kcat/Km (purified protein [3]): 57200 M⁻¹ s⁻¹

— publication PMC9843451
